Assay results published in US20240101675A1 (BIOLOJIC DESIGN, published 2024).
Where a chain is given by its changes, count along the chain named.

T1: recombinant human OX40 tagged with histidine tag (hOX40-His) (human, UniProt P43489 29-216)
T1 construct: bought (Reprokine); also called hOX-His; not shown: histidine tag
T1 sequence (looked up): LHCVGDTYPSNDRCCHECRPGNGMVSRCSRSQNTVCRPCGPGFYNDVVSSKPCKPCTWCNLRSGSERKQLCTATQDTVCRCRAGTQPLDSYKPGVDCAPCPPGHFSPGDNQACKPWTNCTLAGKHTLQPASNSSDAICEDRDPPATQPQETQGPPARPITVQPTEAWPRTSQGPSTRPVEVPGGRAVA

B1: C39 (scFv, V domains shown)
VH: QMQLVESGGGVVQPGRSLRLSCAASGFTFRTYGMHWVRQAPGKGLEWVAVIWYDGSNKHYADSVKGRFTITRDNSKNTLNLQMNSLRAEDTAVYYCARAPQWELTAEAFDLWGQGTMVTVSS
VL: SYVLTQPPSVSVAPGQTARITCGGNLLGSKLVHWYQQKPGQAPVLVVYDDSDRPSWIPERFSGSNSGNTATLTISRVEAGDEADYYCQVWDTSSDHVVFGGGTKLTVL
notes: also called C39-VH-L-VL
B2: C40 (yeast-displayed scFv clone) (scFv, V domains shown)
VH: B1 VH with A99S, L104W, T105V, A106H
VL: B1 VL with L26N, L27I, W56R, H96G
notes: also called C40-VH-L-VL; not shown: linker
B3: C45 (scFv, V domains shown)
VH: B1 VH with A106S
VL: B1 VL with L27I, W56E, T92S, H96G
notes: also called C45-VH-L-VL
B4: C37 (scFv, V domains shown)
VH: B1 VH with T105V, L111M
VL: B1 VL with L27I, W56R, T92S
notes: also called C37-VH-L-VL
B5: C13 (scFv, V domains shown)
VH: B1 VH with T105V
VL: B1 VL with S51G, W56L
notes: also called C13-VH-L-VL
B6: C15 (scFv, V domains shown)
VH: B1 VH with T105V
VL: B1 VL with L27I, S51G, T92S, S93G, H96G
notes: also called C15-VH-L-VL
B7: C26 (scFv, V domains shown)
VH: B1 VH
VL: B1 VL with L26I, L27I, S51G, W56G
notes: also called C26-VH-L-VL
B8: C17 (scFv, V domains shown)
VH: B1 VH with A106S
VL: B1 VL with L27I, W56A
notes: also called C17-VH-L-VL
B9: C43 (scFv, V domains shown)
VH: B1 VH with E103Q, T105V, L111I
VL: B1 VL with L27I, W56A, H96G
notes: also called C43-VH-L-VL
B10: 3212ACOXC14 (OX40 library) (scFv, V domains shown)
VH: QVQLVESGGGVVQPGRSLRLDCKASGIEFSNSGMHWVRQAPGKGLEWVAVIWYDGSKRYYADSVKGRFTISRDNSKNTLFLQMNSLRAEDTAVYYCATNDDYWGQGTLVTVSS
VL: EIVLTQSPATLSLSPGERATLSCRASQSVEHYLAWYQQKPGQAPRLLIYDASNRATGIPARFSGSGSGTDFTLTISSLEPEDFAVYYCQQYSNWPLTFGQGTKVEIK
notes: not shown: linker
B11: 3212ACOXC31 (OX40 library) (scFv, V domains shown)
VH: B10 VH with E28T, R58A
VL: B10 VL with E30Y, S52E, S92N, N93D
notes: not shown: linker
B12: OX-Clone36 (OX40 library) (scFv, V domains shown)
VH: B10 VH with E28D, T98S
VL: B10 VL with E30I, S92D
notes: not shown: linker
B13: 3212ACOXC10 (OX40 library) (scFv, V domains shown)
VH: B10 VH with E28D, Y59L, T98S
VL: B10 VL with E30I, S92D
notes: not shown: linker
B14: OX-Clone71 (OX40 library) (scFv, V domains shown)
VH: B10 VH with E28D, T98S
VL: B10 VL with R54P
notes: not shown: linker
B15: 3212ACOXC21 (OX40 library) (scFv, V domains shown)
VH: B10 VH with T98S
VL: B10 VL with E30D, R54F
notes: not shown: linker
B16: BDG33.004 (antibody, human IgG1, V domains shown)
VH: B1 VH with E103M, T105V
VL: B1 VL with L27I, W56R, T92S
notes: human IgG1; also called BGD33.004; Clone C6 as IgG1
B17: BDG33.003 (antibody, human IgG1, V domains shown)
VH: B1 VH with L111I
VL: B1 VL with L27I, W56L, T92S, H96G
notes: also called BGD33.003; Clone C2 as IgG1
B18: 1B_seq96_13753_B01_4279975 (OX40 Library) (scFv, V domains shown)
VH: B10 VH with E28T
VL: B10 VL with E30I
notes: not shown: linker
B19: 3212ACOXC23 (OX40 library) (scFv, V domains shown)
VH: B10 VH with E28D, V48L, T98S
VL: B10 VL with E30I, S92E
notes: not shown: linker
B20: 3212ACOXC61 (OX40 library) (scFv, V domains shown)
VH: B10 VH with E28A, R58T
VL: B10 VL with E30I, S92T
notes: not shown: linker
B21: C6 (yeast-displayed scFv clone) (scFv, V domains shown)
VH: B1 VH with E103M, T105V
VL: B1 VL with L27I, W56R, T92S
notes: also called Clone C6; C6-VH-L-VL; not shown: linker
B22: C2 (yeast-displayed scFv clone) (scFv, V domains shown)
VH: B1 VH with L111I
VL: B1 VL with L27I, W56L, T92S, H96G
notes: also called Clone C2; C2-VH-L-VL; not shown: linker
B23: C9 (yeast-displayed scFv clone) (scFv, V domains shown)
VH: B1 VH with A99S, L104W, T105V, A106H
VL: B1 VL with L27I, S51G, T92S, H96G
notes: also called Clone C9; C9-VH-L-VL; not shown: linker

molecular target: T2, recombinant human TSLP (hTSLP)-Fc (human, UniProt Q969D9 29-159, limits assumed); assay: yeast surface display flow cytometry, 10 nM hTSLP-Fc; MFI normalized to expression and to the positive control
T2 construct: used for yeast surface display labelling; also called rhTSLP; not shown: Fc

Row | binding result | Binder
1 | binds | B1
2 | binds | B2
3 | binds | B3
4 | binds | B4
5 | binds | B5
6 | binds | B6
7 | binds | B7
8 | binds | B8
9 | binds | B9

molecular target: T1, recombinant human OX40 tagged with …; assay: yeast surface display scFv, flow cytometry, 90 nM hOX40-His

Row | binding result | Binder
10 | binds | B10
11 | binds | B11
12 | binds | B12
13 | binds | B13
14 | binds | B14
15 | binds | B15

molecular target: T3, recombinant human IL-13 (human, UniProt P35225 35-146); assay: SPR, IgG captured, hIL-13 as analyte, steady state
T3 construct: also called rh-IL-13; rhIL-13
T3 sequence (P35225 35-146 limits assumed): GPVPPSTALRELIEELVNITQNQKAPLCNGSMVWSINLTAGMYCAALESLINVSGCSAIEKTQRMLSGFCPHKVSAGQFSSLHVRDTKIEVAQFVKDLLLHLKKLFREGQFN
Method: Subsequent to a cycle, the analyte and tested antibody were stripped from the chip and new tested Ab was loaded on the chip as described above. KD was determined at a steady state condition.

Row | Kd [nM] | Binder
16 | 57.4 | B16
17 | 21.6 | B17

molecular target: T4, recombinant human PD-1 tagged with histidine tag (hPD-1-His) (human, UniProt Q15116 25-167, limits assumed); assay: yeast surface display flow cytometry: scFv on yeast, 30 nM hPD-1-His, anti-His-APC; median RFU
T4 construct: bought (Reprokine); not shown: histidine tag
T4 sequence (Q15116 25-167 limits assumed): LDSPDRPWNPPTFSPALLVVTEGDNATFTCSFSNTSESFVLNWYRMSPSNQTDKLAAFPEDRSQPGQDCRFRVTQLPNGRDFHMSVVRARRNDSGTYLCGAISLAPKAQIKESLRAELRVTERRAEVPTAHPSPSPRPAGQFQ

Row | binding result | Binder
18 | binds | B18
19 | binds | B19
20 | binds | B20

molecular target: T1, recombinant human OX40 tagged with …; assay: yeast surface display flow cytometry: scFv on yeast, 90 nM hOX40-His, anti-His-APC; median RFU

Row | binding result | Binder
21 | binds | B18
22 | binds | B19
23 | binds | B20

molecular target: T5, human TSLP (human, UniProt Q969D9 29-159); assay: SPR (ProteOn XPR36), IgG captured, hTSLP as analyte 3.2 to 0.2 nM
T5 construct: also called hTSLP; h-TSLP

Row | Kd [nM] | koff [s⁻¹] | kon [M⁻¹ s⁻¹] | Binder
24 | 3.33 | 0.00114 | 344000 | B16
25 | 4.5 | 0.00129 | 287000 | B17

molecular target: T6, recombinant human IL-13 (rh-IL-13)-Fc (human, UniProt P35225 35-146, limits assumed); assay: yeast surface display flow cytometry, 10 nM rh-IL-13-Fc; MFI normalized to expression and to the positive control
T6 construct: used for yeast surface display labelling; not shown: Fc (detected with anti human Fc)
T6 sequence (P35225 35-146 limits assumed): as the sequence (P35225 35-146 limits assumed) above

Row | binding result | Binder
26 | binds | B1
27 | binds | B4
28 | binds | B7
29 | binds | B9

molecular target: T6, recombinant human IL-13 (rh-IL-13)-Fc; assay: yeast surface display scFv, flow cytometry, 10 nM rh-IL-13
Method: Isolated clones from the final sort were sequenced by extraction of plasmid DNA from the yeast clones using a Zymoprep kit (Zymo Research, USA) and the DNA was sequenced. […] Cells were washed and resuspended in ice-cold PBS 0.1% BSA buffer containing a fluorescent labeled secondary antibody as described above for 20 min and analyzed using a flow cytometer.
The affinity was normalized based on the mean fluorescence values of the positive control (normalized MFI).

Row | relative affinity (normalized MFI against the positive control) | Binder
30 | > 20 % of positive control | B2
31 | > 20 % of positive control | B21
32 | > 20 % of positive control | B22
33 | > 20 % of positive control | B23
